One molecule from paper PMC11794253 can be followed below.

Assay [1] deals with human neonatal Fc receptor (hFcRn) (human) (UniProt P55899). Description: SPR.
Assay [2] concerns the target His-tagged FcγRIIIa/CD16a extracellular domain (amino acids 17-208), V158 allotype (UniProt P08637). Description: SPR.
UniProt P08637, sequence (P08637 17-208 F176V): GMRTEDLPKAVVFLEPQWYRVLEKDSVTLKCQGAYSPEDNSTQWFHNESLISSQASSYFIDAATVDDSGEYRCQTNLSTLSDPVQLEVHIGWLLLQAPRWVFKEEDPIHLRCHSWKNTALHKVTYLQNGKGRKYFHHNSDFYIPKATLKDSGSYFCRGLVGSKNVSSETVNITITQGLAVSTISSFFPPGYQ

UniProt P55899, sequence (P55899 24-297, chain 1 of 2): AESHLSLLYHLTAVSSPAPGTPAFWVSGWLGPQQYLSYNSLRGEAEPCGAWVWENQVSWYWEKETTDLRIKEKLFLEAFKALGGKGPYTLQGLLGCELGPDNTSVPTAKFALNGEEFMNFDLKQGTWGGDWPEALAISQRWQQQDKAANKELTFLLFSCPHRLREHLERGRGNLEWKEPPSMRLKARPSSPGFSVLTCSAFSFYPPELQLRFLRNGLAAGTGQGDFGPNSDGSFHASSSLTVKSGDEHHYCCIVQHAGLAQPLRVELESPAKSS
UniProt P55899, sequence (P61769 21-119, chain 2 of 2, further chain): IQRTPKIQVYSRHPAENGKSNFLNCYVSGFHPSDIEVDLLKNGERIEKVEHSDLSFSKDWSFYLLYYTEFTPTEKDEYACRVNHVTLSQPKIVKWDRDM

B1: COVA2-15 IgG1, wild type, produced in N. benthamiana ΔXT/FT (antibody, V domains shown)
VH: QVQLLESGGGLVQPGGSLRLSCAASGFTFSSYAMSWVRQAPGKGLEWASAISGSGGSTYYADSVEGRFTISRDNSKNTLYLQMNSLRAEDTAVYYCAKDTGYCGDDCYIKLIRGGPDYWGQGTLVTVSS
VL: DIVMTQSPLSLPVTLGQPASISCRSSQSLVYSDGNTFLNWFQQRPGQSPRRLIYQVSNRDSGVPDRFSGSGSGTDFTLKISRVEAEDVGVYYCMQGTHWPRTFGQGTKLEIK
As for B1, the kon in assay [1] stood at 389000 M⁻¹ s⁻¹; in assay [2], 306000 M⁻¹ s⁻¹. Moreover, the Kd in assay [1] (KD from steady-state analysis) came out at 344 nM; in assay [1] (kinetic 1:1 binding model fit) it was 196 nM; in assay [2] (from kinetic rate constants), 127 nM; in assay [2] (steady-state analysis), 259 nM.

One may read the kon as a measure of how fast the partners come together. The term Kd denotes the free concentration of one partner at which half of the binding sites on the other are occupied at equilibrium, for simple one-to-one binding. A low value points to a tighter complex.
